# Experimental data as given in PMC9482650, “Quantitative fragmentomics allow affinity mapping of interactomes” (Nature Communications, 2022).
# Assays:
# Experiment in all cases: holdup assay
# Parameters in all cases: key: below the threshold = too weak to quantify, mostly under pKd 3.1 to 4
# [1] = molecular target: AHNAK1, Q09666
# [2] = molecular target: T1, APBA1_1, Q02410
# T1 sequence (Q02410 651-752, limits assumed, looked up): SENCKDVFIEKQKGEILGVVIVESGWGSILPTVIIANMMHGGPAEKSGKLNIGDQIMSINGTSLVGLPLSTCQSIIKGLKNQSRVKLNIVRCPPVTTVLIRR
# [3] = molecular target: DLG1_1, Q12959
# [4] = molecular target: DLG1_3, Q12959
# [5] = molecular target: DLG2_2, Q15700
# [6] = molecular target: DLG2_3, Q15700
# [7] = molecular target: GIPC2, Q8TF65
# [8] = molecular target: GOPC, Q9HD26
# [9] = molecular target: GORASP2, Q9H8Y8
# [10] = molecular target: GRID2IP_1, A4D2P6
# [11] = molecular target: T2, GRIP1_2, Q9Y3R0
# T2 sequence (Q9Y3R0 145-248, limits assumed, looked up): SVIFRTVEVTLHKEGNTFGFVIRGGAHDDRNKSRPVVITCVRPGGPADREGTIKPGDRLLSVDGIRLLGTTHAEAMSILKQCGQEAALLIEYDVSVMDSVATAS
# [12] = molecular target: T3, GRIP1_3, Q9Y3R0
# T3 sequence (Q9Y3R0 247-346, limits assumed, looked up): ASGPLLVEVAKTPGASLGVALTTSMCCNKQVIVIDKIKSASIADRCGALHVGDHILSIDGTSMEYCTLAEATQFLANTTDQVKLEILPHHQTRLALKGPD
# [13] = molecular target: T4, GRIP1_7, Q9Y3R0
# T4 sequence (Q9Y3R0 999-1096, limits assumed, looked up): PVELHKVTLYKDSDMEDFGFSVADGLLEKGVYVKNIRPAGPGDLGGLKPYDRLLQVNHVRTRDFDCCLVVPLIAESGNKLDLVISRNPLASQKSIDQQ
# [14] = molecular target: GRIP2_7, Q9C0E4
# [15] = molecular target: Inadl_1, Q8NI35
# [16] = molecular target: LDB3, O75112
# [17] = molecular target: T5, LIN7A, O14910
# T5 sequence (O14910 103-200, limits assumed, looked up): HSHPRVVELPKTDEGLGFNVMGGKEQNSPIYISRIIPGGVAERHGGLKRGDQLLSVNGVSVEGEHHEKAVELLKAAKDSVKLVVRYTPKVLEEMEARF
# [18] = molecular target: MAGI2_2, Q86UL8
# [19] = molecular target: MAGI2_3, Q86UL8
# [20] = molecular target: T6, MPDZ_10, O75970
# T6 sequence (O75970 1624-1722, limits assumed, looked up): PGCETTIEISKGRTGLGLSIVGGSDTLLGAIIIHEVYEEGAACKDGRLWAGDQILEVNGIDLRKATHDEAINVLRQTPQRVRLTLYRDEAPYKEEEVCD
# [21] = molecular target: T7, NHERF3_1, Q5T2W1
# T7 sequence (Q5T2W1 4-100, limits assumed, looked up): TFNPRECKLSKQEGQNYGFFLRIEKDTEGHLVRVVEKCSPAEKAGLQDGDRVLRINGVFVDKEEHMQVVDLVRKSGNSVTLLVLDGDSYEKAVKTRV
# [22] = molecular target: NHERF4_4, Q86UT5
# [23] = molecular target: T8, PCLO, Q9Y6V0
# T8 sequence (Q9Y6V0 4491-4600, limits assumed, looked up): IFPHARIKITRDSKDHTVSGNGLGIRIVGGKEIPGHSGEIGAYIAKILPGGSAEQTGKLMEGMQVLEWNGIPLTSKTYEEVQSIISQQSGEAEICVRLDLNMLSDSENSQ
# [24] = molecular target: T9, RADIL, Q96JH8
# T9 sequence (Q96JH8 971-1071, limits assumed, looked up): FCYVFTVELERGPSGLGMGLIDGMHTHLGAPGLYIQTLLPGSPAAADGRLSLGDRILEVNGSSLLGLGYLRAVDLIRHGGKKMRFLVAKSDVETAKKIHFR
# [25] = molecular target: SCRIB_3, Q14160
# [26] = molecular target: T10, TIAM2, Q8IVF5
# T10 sequence (Q8IVF5 885-986, limits assumed, looked up): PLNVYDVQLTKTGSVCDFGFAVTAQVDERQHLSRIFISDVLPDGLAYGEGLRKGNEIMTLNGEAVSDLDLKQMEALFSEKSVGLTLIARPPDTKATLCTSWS
# [27] = molecular target: TJP1_2, Q07157
# [28] = molecular target: TJP1_3, Q07157
# [29] = plain residues with an end cap or a label only (N-terminal biotin on a linker: ahx)
# [30] = plain residues with an end cap or a label only (N-terminal biotin on a linker: ado-ado)
# TJP1_2, Q07157, sequence (Q07157 181-274): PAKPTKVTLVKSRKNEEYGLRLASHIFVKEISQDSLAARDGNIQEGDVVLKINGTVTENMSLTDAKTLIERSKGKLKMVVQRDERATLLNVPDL
# SCRIB_3, Q14160, sequence (Q14160 999-1103): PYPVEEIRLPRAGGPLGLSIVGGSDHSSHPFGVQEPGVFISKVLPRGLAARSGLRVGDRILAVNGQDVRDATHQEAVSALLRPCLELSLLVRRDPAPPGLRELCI
# GIPC2, Q8TF65, sequence (Q8TF65 112-203): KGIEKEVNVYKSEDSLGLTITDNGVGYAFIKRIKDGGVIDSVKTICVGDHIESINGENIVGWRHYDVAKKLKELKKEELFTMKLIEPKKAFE
# Inadl_1, Q8NI35, sequence (Q8NI35 113-229): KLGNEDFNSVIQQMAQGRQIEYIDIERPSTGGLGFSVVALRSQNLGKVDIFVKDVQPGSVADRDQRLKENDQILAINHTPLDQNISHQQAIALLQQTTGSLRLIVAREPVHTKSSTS
# MAGI2_2, Q86UL8, sequence (Q86UL8 410-522): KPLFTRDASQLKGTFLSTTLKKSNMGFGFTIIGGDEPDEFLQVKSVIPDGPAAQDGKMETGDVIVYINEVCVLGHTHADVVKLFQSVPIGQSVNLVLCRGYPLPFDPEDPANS
# GRIP2_7, Q9C0E4, sequence (Q9C0E4 934-1023): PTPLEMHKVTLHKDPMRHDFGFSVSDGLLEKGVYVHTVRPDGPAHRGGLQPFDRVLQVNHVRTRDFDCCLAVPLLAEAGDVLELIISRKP
# TJP1_3, Q07157, sequence (Q07157 416-512): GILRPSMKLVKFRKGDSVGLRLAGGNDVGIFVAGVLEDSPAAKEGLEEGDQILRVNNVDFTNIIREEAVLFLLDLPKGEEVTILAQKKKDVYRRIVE
# LDB3, O75112, sequence (O75112 1-94): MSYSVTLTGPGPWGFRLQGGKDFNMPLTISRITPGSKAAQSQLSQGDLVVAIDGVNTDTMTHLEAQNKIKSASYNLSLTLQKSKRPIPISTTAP
# MAGI2_3, Q86UL8, sequence (Q86UL8 600-682): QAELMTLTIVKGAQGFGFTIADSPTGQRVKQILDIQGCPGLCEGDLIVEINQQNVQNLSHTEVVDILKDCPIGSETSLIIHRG
# AHNAK1, Q09666, sequence (Q09666 4-100): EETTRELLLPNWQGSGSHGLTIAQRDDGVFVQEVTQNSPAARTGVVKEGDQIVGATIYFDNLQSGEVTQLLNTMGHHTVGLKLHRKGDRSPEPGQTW
# GRID2IP_1, A4D2P6, sequence (A4D2P6 1-87): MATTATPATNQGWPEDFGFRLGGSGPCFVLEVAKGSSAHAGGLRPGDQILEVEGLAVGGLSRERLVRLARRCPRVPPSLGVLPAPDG
# NHERF4_4, Q86UT5, sequence (Q86UT5 464-550): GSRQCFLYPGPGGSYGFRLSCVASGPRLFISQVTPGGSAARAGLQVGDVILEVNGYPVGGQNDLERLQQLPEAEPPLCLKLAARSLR
binder,measurement,setting,value
"EKQAKGDTEF [CACYBP, Q9HB71]",pKd,[1]; [29],below the threshold
same,pKd,[2]; [29],below the threshold
same,pKd,[3]; [29],below the threshold
same,pKd,[4]; [29],below the threshold
same,pKd,[5]; [29],below the threshold
same,pKd,[6]; [29],below the threshold
same,pKd,[7]; [29],below the threshold
same,pKd,[8]; [29],below the threshold
same,pKd,[9]; [29],below the threshold
same,pKd,[10]; [29],below the threshold
same,pKd,[11]; [29],below the threshold
same,pKd,[12]; [29],below the threshold
same,pKd,[13]; [29],below the threshold
same,pKd,[14]; [29],below the threshold
same,pKd,[15]; [29],below the threshold
same,pKd,[16]; [29],below the threshold
same,pKd,[17]; [29],below the threshold
same,pKd,[18]; [29],below the threshold
same,pKd,[19]; [29],below the threshold
same,pKd,[20]; [29],below the threshold
same,pKd,[21]; [29],below the threshold
same,pKd,[22]; [29],below the threshold
same,pKd,[23]; [29],below the threshold
same,pKd,[24]; [29],below the threshold
same,pKd,[25]; [29],below the threshold
same,pKd,[26]; [29],below the threshold
same,pKd,[27]; [29],below the threshold
same,pKd,[28]; [29],below the threshold
"SLNANEVEWF [RNF130, Q86XS8]",pKd,[1]; [30],below the threshold
same,pKd,[2]; [30],3.56
same,pKd,[3]; [30],below the threshold
same,pKd,[4]; [30],3.64
same,pKd,[5]; [30],below the threshold
same,pKd,[6]; [30],3.73
same,pKd,[7]; [30],below the threshold
same,pKd,[8]; [30],below the threshold
same,pKd,[9]; [30],4.7
same,pKd,[10]; [30],below the threshold
same,pKd,[11]; [30],3.68
same,pKd,[12]; [30],below the threshold
same,pKd,[13]; [30],below the threshold
same,pKd,[14]; [30],3.94
same,pKd,[15]; [30],3.52
same,pKd,[16]; [30],below the threshold
same,pKd,[17]; [30],below the threshold
same,pKd,[18]; [30],below the threshold
same,pKd,[19]; [30],3.7
same,pKd,[20]; [30],below the threshold
same,pKd,[21]; [30],3.89
same,pKd,[22]; [30],4.1
same,pKd,[23]; [30],below the threshold
same,pKd,[24]; [30],4.59
same,pKd,[25]; [30],3.96
same,pKd,[26]; [30],4.16
same,pKd,[27]; [30],4.2
same,pKd,[28]; [30],below the threshold
